Test results reported in the nanobody polyreactivity screen of Harvey et al. (2022).

Test: yeast display, Sf9 membrane polyspecificity reagent, FACS + sequencing; frameworks hold sequencing errors
Outline: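 After 36–48 hours of galactose induction, yeast (Saccharomyces cerevisiae BJ5465) displaying a synthetic nanobody library were stained at 4 °C for 1 hour with 10% biotinylated, detergent-solubilized Sf9 membrane reagent. Streptavidin microbeads enriched the stained cells before FACS sorting into low and high (top ~1%) gates on anti-HA and streptavidin fluorescence. Each clone's polyreactivity label reflects its gate of origin.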

Sequence | polyreactivity (PSR sort gate)
QVQLVESGGGLVQAGGSLRLSCAASGRTFSVNAMGWYRQAPGKERELVAAISWDGGSTYYADSVKGRFTISRDTAKNTVYLQMNSLKPEDTAVYYCNKDLYYAYDYWGQGTQVTVSS | low polyreactivity
QVQLVESGGGLVQAGGSLRLSCAASGRTFSVNAMGWYRQAPGKERELVATITWSGSSTSYADSVKGRFTISRDNAKNSVDLQMNSLTPEDTAVYYCAADLWTLIYLTDTYGDWGQGTQVTVSS | low polyreactivity
QVQLVESGGGLVQAGGSLRLSCAASGRTFSVNDMGWYRQAPGKERELVAAISFSGGSTYYADSVKGRFTISRDNAKNTVYLQMNSLKPEDTAVYYCAAEAYPVRRLNLPGYDYWGQGTQVTVSS | high polyreactivity
QVQLVESGGGLVQAGGSLRLSCAASGRTFSVYAMGWYRQAPGKERELVAVIRGRGGRTYYADSVKGRFTISRDNAKNTVYLQMNSLKPEDTAVYYCNAVGQIVYGKQYDYWGQGTQVTVSS | high polyreactivity
QVQLVESGGGLVQAGGSLRLSCAASGRTFSVYTMGWYRQAPGKERELVAVISSGGGTDYADSVKGRFTISRDNAKNTVYLQMNSLKPEDTAVYYCAAELRYYLYDVVYIVTYDYWGQGTQVTVSS | low polyreactivity
QVQLVESGGGLVQAGGSLRLSCAASGRTFSWNTMGWYRQAPGKEMELVATITWSGTSTYYADSVKGRFTISRDNAKNTDYLQMNSLKPEDTAVYYCAKRRLFPYTISRYDYWGQGTQVTVSS | high polyreactivity
QVQLVESGGGLVQAGGSLRLSCAASGRTFSWYAMGWYRPAPGQERELVAAITYSGGNTYYADSVKGRFTISRDNAKNTVYLQMNSLKPEDTAVYYCAKYGVTGQGSWSQRMGYWGQGTQVTVSS | high polyreactivity
QVQLVESGGGLVQAGGSLRLSCAASGRTFSWYAMGWYRQAPGKERELVAAITRDGGNTYYADSVKGRFTISRDNAKNTVYLQMNSLKPEDTAVYYCAAAPTTGKRPGYYYWGQGTQVTVSS | high polyreactivity
QVQLVESGGGLVQAGGSLRLSCAASGRTFSYYAKGWYRQAPGKESELVSAIRVSGGITYYADSVKGRFTISRDNAKNTVYLQMNTLKPEDTAVYYCNAGVDFIGGRYLTYVYWGQGTQVTVSW | low polyreactivity
QVQLVESGGGLVQAGGSLRLSCAASGRTFSYYAMGWYIQAPGKERELVAAINSSGGRTYYADSVKGRFTISRDNAKNTVYLQMNSLKPEDTAVYYCAARSYSTSSHHGYWGQGTQVTVSS | high polyreactivity
QVQLVESGGGLVQAGGSLRLSCAASGRTFSYYAMGWYRQAHGKERELVAAITSSGGRTTYADSVKGRFTISRDNAKNTVYLQMNSLKPEDTAVYYCNVVRWTLKYGYWGQGTQVTVSS | high polyreactivity
QVQLVESGGGLVQAGGSLRLSCAASGRTFSYYAMGWYRQAPGKEREFVAAISSTGTSTYYADSVKGRFTISRDNAKNTVYLQMNSLKPEDTAVYYCNARVATYRLHSKFYYWGQGTQVTVSS | high polyreactivity
QVQLVESGGGLVQAGGSLRLSCAASGRTFSYYAMGWYRQAPGKERELVAAISYSGGRTYYADSVKGRFTISRDNAKNTVYIQMNSLKPEDTAVYYCAPVKSRPQYGYGYWVQGTQVTVSS | high polyreactivity
QVQLVESGGGLVQAGGSLRLSCAASGRTFSYYAMGWYRQAPGKERELVAAITSGGGRTYYADSVKGRFTISRDNAKNTVYLQMNSLKPEDTAVYYCNALSTLYNGYDYWGQGTQVTVSS | high polyreactivity
QVQLVESGGGLVQAGGSLRLSCAASGRTFSYYAMRWYRQAPGKERELVAAITSGGSTYYADSVKGRFTISRDNAKNTVYLQMNSLKPEDTAVYYCAKYQSYGPVPFGRGYGHYYWGQGTQVTVSS | high polyreactivity
QVQLVESGGGLVQAGGSLRLSCAASGRTFSYYARGWYRQAPGKEREFVAAISSSGGSTNYADSVKGRFTISRDNAKNTVYLQMNSLKPEDTAVYYCNAGSGYTGVYLWYYWRYDYWGQGTQVTVSS | low polyreactivity
QVQLVESGGGLVQAGGSLRLSCAASGRTFSYYTMGWYRQAPGKERELVARISNRGTNTYYADSVKGRFTISRDNAKNTVYLQMNSLKPEDTAVYYCAATQPYWWAYRYDYWGQGTQVTVSS | low polyreactivity
QVQLVESGGGLVQAGGSLRLSCAASGRTFSYYTMGWYRQATGKERELVARISNRGTNTYYADSVKGRFTISRDNAKITVYLPMNSLKQEDTAVYYCDKFYYTSIVGYDSWGQGTQVTVSS | low polyreactivity
QVQLVESGGGLVQAGGSLRLSCAASGRTFTAYAMGWYRQAPGKERELVARITSVDSTNYADSVKGRFTISRDNAKNTVYLHMYSLKPDDTAVYYCNATFGYPFVDYDDYWGQVTQVTVSS | low polyreactivity
QVQLVESGGGLVQAGGSLRLSCAASGRTFTEYAMGWYRQAPGKERELGAGIDSGSGSTYYADSVKGRFTISRDYAKNTVYLQMNSLHPEDTAVYYCAARDVWSPYDTDVDYWGQGTQVTVSS | low polyreactivity
QVQLVESGGGLVQAGGSLRLSCAASGRTFTFNVMGWYRQAPGKERELVAVITGGDDTYYADSVKGRFTISRDNAKNTVYFQMNSLKPVDTAVYYCNAAAGATTLVRPYVEFDYWGQGTQVNVSS | low polyreactivity
QVQLVESGGGLVQAGGSLRLSCAASGRTFTFYAMGWYRQAPGKERELVAAISTRGGRTYYADSVKGRFTISRDNAKNTVYLQMNSLKPEDTAVYYCAARARRRYYYWGQGTQVTVSS | high polyreactivity

Sequence | polyreactivity (PSR sort gate)
QVQLVESGGGLVQAGGSLRLSCAASGRTFTFYTMGWYRQAPGKERELVARITGGGSTYYADSVKGRFTISRDNAKNTVYLQMNSLKPEDTAVYYCAAASGTKRLYRGTRGDYWGQGTQVTVSS | low polyreactivity
QVQLVESGGGLVQAGGSLRLSCAASGRTFTGNAMGWYRQAPGKERELVAAISTSGTRTTYADSVKGRFTISRDNAKNPVYLQMTSLKPEDTAVYYCAALRKCLYRTYTYDYWGQGTQVTVSS | high polyreactivity
QVQLVESGGGLVQAGGSLRLSCAASGRTFTGYVMGWYRQAPGKDRELVAGSSRRGGRTYYADSVKGRYTISRDNAKNTVYLQMNSLKPEDTEVYYCAAAVTSSDPYDYWGQGTQVTVSS | high polyreactivity
QVQLVESGGGLVQAGGSLRLSCAASGRTFTHNTMGWYRQAPGKERELVAAISRSGASTYYADSVKGRFTISRDNAKNTVYLQMNSLKPEDTAVYYCNAYSRPHFGYVVGTKSRHGYWGQGTQVTVSS | high polyreactivity
QVQLVESGGGLVQAGGSLRLSCAASGRTFTHNVMGWYRQAPGKERELVAGISSTGGSTYYADSVKGRFTISRDNAKNTVYLQMNSLKPEDTAVYYCAVIGYHYSAISPPSQTRQGYDYWGQGTQVTLSS | low polyreactivity
QVQLVESGGGLVQAGGSLRLSCAASGRTFTHYAMGWYRQAPGKERELVAAISGRGGNTYYADSVKGRFTISRDNAKNTVYLQMNSLKPEDTAVYYCNTAYVAKGYGYWGQGTQVTVSS | high polyreactivity
QVQLVESGGGLVQAGGSLRLSCAASGRTFTHYAMGWYRQAPGKERELVASISDGGRTHYADSVKGRFTISRDNAKNTVYLQMNSLKPEDTAVYYCATDRYPTRRYDYWGQGTQVTVSS | low polyreactivity
QVQLVESGGGLVQAGGSLRLSCAASGRTFTIYAMGWYRQAPGKERELVAAISSSSGSTYYADSVKGRFTISRDNAKNTVYLQMNSLKPEDTAVYYCAARTTYRSSKRYGYWGQGTQVTVSS | high polyreactivity
QVQLVESGGGLVQAGGSLRLSCAASGRTFTKYAKGWYRQAPGKERELVAAISNSGGSTFYADSVKGRFTISRDNAKNTVYLQMNSLKPEDTAVYYCAVDLGDTQYVPFDYWGQGTQVTVSS | low polyreactivity
QVQLVESGGGLVQAGGSLRLSCAASGRTFTPYTMGWYRQAPGKEREFVAAITFRGGSTYYADSVKGRFTLSRDNAKNTVYLQMNSLKPEDTAVYYCNARGHGGWGTSMYYWGQGTQVTVSS | high polyreactivity
QVQLVESGGGLVQAGGSLRLSCAASGRTFTRYAMGWSRQAPGKERELVAAITSTGSTYYADSVKGRFTISRDNAKNTVYLQMNSLKPEDTAVYYCNKVGIRYYYGYDYWGQGTQVTVSS | high polyreactivity
QVQLVESGGGLVQAGGSLRLSCAASGRTFTRYSMGWYRQAPGKERELVATINSSGDRTYYADSVKGRFTISRDNAKNTVYLQMNSLKPEDTAVYYCAKRWSPYLYGYWGKGTQVTVSS | high polyreactivity
QVQLVESGGGLVQAGGSLRLSCAASGRTFTRYVMGWYRQAPAKEREVVAAISSSGGTYYADSVKGRFTISRDNAKNTVYLQMNSLKPEDTAVYYCAVGSKLSRSYGYYYWGQGTQVTVSS | high polyreactivity
QVQLVESGGGLVQAGGSLRLSCAASGRTFTSNAMRWYRQEPGNERELVAAISNRGTRTYYADSVKGRFTISRDNAKNTVYLQMHILKPEETAVYYCAASERDQRFKHYYWGLGTQVTVSS | high polyreactivity
QVQLVESGGGLVQAGGSLRLSCAASGRTFTSYGMGWYRPEPGKERELVAAITRSTGGTYYADSVKGRFTISRDHAKNTVYLQMNSLKPEDTAVYYCNTGPLYSPFDYWGQGTQVTVSS | low polyreactivity
QVQLVESGGGLVQAGGSLRLSCAASGRTFTTYAMGWYRQSPGKERELVAAISGSGGSTYYADSVKGRFTISRDNAKNTVYLQMNSLKPEDTAVYYCATAYYYHGGYYYPYDDYWGQGTQVTVSS | low polyreactivity
QVQLVESGGGLVQAGGSLRLSCAASGRTFTVNAMGWSRQAPGKERELVAAISTSTGRTYYADSVKGRFTISRDNAKNTVYLQMNSLKPEDTAVYYCAAQSPYRGYYYTYYLYDYWGQGTQVTVSS | high polyreactivity
QVQLVESGGGLVQAGGSLRLSCAASGRTFTVNPMGWYRQAPGKERELVAAITSGGTTKYADSVKGRFTISRDNAKNTVYLQMNSLKPEDTAVYYCAARVYFPVQYPWFYFEYGYWGQGTQVTVSS | high polyreactivity
QVQLVESGGGLVQAGGSLRLSCAASGRTFTVYTMGWYRQAPGKERELVAVISTGGRTYYADSVKGRFTISRDNAKNTVYLQMNSLNPEDTAVYYCAAKFTREYYWGQGTQVTVSS | high polyreactivity
QVQLVESGGGLVQAGGSLRLSCAASGRTFTYNAMGWYRQAPGKERELDAAISWNGGRTYYADSVKGRFTISRDNAKNTVYLQMNSLKPEDTAVYYCAARSPKDSYSIQRYYWGQGTQVTVSS | high polyreactivity
QVQLVESGGGLVQAGGSLRLSCAASGRTFTYNTMGWYRQAPGKERELVAAISSSGGSTYYADSVKGRFTISRDNAKNTVYLKMNCLKPEDTAVYYCAKRYFSSSRYYYWGQGTKVTVSS | high polyreactivity
